Reference: patent US20080311130A1 (IMMUNE DISEASE INSTITUTE, published 2008)
Positions count from the first letter of the chain named. Names may count otherwise.

B1: soluble αL I domain mutant F292G, Asn-129 to Tyr-307 (receptor)
chain: NVDLVFLFDGSMSLQPDEFQKILDFMKDVMKKLSNTSYQFAAVQFSTSYKTEFDFSDYVKWKDPDALLKHVKHMLLLTNTFGAINYVATEVFREELGARPDATKVLIIITDGEATDSGNIDAAKDIIRYIIGIGKHFQTKESQETLHKFASKPASEFVKILDTGEKLKDLFTELQKKIY
B2: soluble αL I domain mutant F265S, Asn-129 to Tyr-307 (receptor)
chain: B1 chain with F137S, G164F
B3: soluble αL I domain mutant F292A, Asn-129 to Tyr-307 (receptor)
chain: B1 chain with G164A
B4: αL I domain clone m7 (F292S), yeast-displayed (receptor)
chain: NVDLVFLFDGSMSLQPDEFQKILDFMKDVMKKLSNTSYQFAAVQFSTSYKTEFDFSDYVKWKDPDALLKHVKHMLLLTNTFGAINYVATEVFREELGARPDATKVLIIITDGEATDSGNIDAAKDIIRYIIGIGKHFQTKESQETLHKFASKPASEFVKILDTSEKLKDLFTELQKKIYVIEGTSKQDLT
notes: yeast surface display; not shown: Aga2, linker and hemagglutinin tag of pCTCON; c-myc tag
B5: αL I domain clone m4 (F134L, K252E, F265S), yeast-displayed (receptor)
chain: B4 chain with F6L, K124E, F137S, S164F
notes: as for B4
B6: αL I domain clone f3 (L289P), yeast-displayed (receptor)
chain: B4 chain with L161P, S164F
notes: as for B4
B7: αL I domain clone f11 (L295W), yeast-displayed (receptor)
chain: B4 chain with S164F, L167W
notes: as for B4
B8: αL I domain clone f6 (F292G), yeast-displayed (receptor)
chain: B4 chain with S164G
notes: as for B4
B9: αL I domain clone m1 (I258T), yeast-displayed (receptor)
chain: B4 chain with I130T, S164F
notes: as for B4
B10: αL I domain clone f8 (L295A), yeast-displayed (receptor)
chain: B4 chain with S164F, L167A
notes: as for B4
B11: αL I domain clone m5a (L274I), yeast-displayed (receptor)
chain: B4 chain with L146I, S164F
notes: as for B4
B12: αL I domain clone m13 (F265S), yeast-displayed (receptor)
chain: B4 chain with F137S, S164F
notes: as for B4
B13: αL I domain clone f2 (L289G), yeast-displayed (receptor)
chain: B4 chain with L161G, S164F
notes: as for B4
B14: αL I domain clone m15 (F277L, I288T), yeast-displayed (receptor)
chain: B4 chain with F149L, I160T, S164F
notes: as for B4
B15: αL I domain clone m14 (I288N), yeast-displayed (receptor)
chain: B4 chain with I160N, S164F
notes: as for B4
B16: αL I domain clone f7 (F292P), yeast-displayed (receptor)
chain: B4 chain with S164P
notes: as for B4
B17: αL I domain clone m12 (I150T, G246V, F299L, I309T), yeast-displayed (receptor)
chain: B4 chain with I22T, G118V, S164F, F171L, I181T
notes: as for B4
B18: αL I domain clone m6 (F209Y, L289P), yeast-displayed (receptor)
chain: B4 chain with F81Y, L161P, S164F
notes: as for B4
B19: αL I domain clone m8 (F292S, P281E), yeast-displayed (receptor)
chain: B4 chain with P153E
notes: as for B4
B20: αL I domain clone m9 (F292S, Y177R, L204Q), yeast-displayed (receptor)
chain: B4 chain with Y49R, L76Q
notes: as for B4
B21: αL I domain clone f5 (F292A), yeast-displayed (receptor)
chain: B4 chain with S164A
notes: as for B4
B22: αL I domain clone f10 (L295Q), yeast-displayed (receptor)
chain: B4 chain with S164F, L167Q
notes: as for B4
B23: αL I domain clone f9 (L295P), yeast-displayed (receptor)
chain: B4 chain with S164F, L167P
notes: as for B4
B24: αL I domain clone m3 (G262E), yeast-displayed (receptor)
chain: B4 chain with G134E, S164F
notes: as for B4
B25: αL I domain clone m12c (I309T), yeast-displayed (receptor)
chain: B4 chain with S164F, I181T
notes: as for B4
B26: αL I domain clone m10 (F265L, E293G, K294E, K296E, V308I), yeast-displayed (receptor)
chain: B4 chain with F137L, S164F, E165G, K166E, K168E, V180I
notes: as for B4
B27: αL I domain clone m5 (L274I, S279T), yeast-displayed (receptor)
chain: B4 chain with L146I, S151T, S164F
notes: as for B4
B28: αL I domain clone m15a (F277L), yeast-displayed (receptor)
chain: B4 chain with F149L, S164F
notes: as for B4
B29: αL I domain clone f4 (L289W), yeast-displayed (receptor)
chain: B4 chain with L161W, S164F
notes: as for B4
B30: αL I domain clone m11 (L295P, Q303R), yeast-displayed (receptor)
chain: B4 chain with S164F, L167P, Q175R
notes: as for B4
B31: αL I domain clone m2 (I258T, T267A, F277A), yeast-displayed (receptor)
chain: B4 chain with I130T, T139A, F149A, S164F
notes: as for B4
B32: αL I domain clone m10b (E293G), yeast-displayed (receptor, not shown: large carriers; small tags and cut ends)
chain: B4 chain with S164F, E165G

molecular target: T1, ICAM-1-Fcγ (ICAM-1 residues of 1-480 fused to the Fc of human IgG, R&D Systems) (human, UniProt P05362 28-480); experiment: SPR (Biacore 3000), I domain injected over ICAM-1-Fcγ-coupled CM5 chip, 10 mM MgCl2
T1 construct: range 1-480; Bought (R&D Systems); also called ICAM-1-Fcγ chimera; not shown: Fc of human IgG
Method: (§1) Mutant I domains (F265S, F292A, F292G, F265S/F292G, and HA) with residues of Asn-129 to Tyr-307 were expressed in Escherichia coli BL21 (DE3) (Novagen), refolded, and purified as described previously⁶. ICAM-1-Fcγ-coupled or mock-coupled CM5 sensor chip as control was prepared using the amine coupling kit (BIAcore, Piscataway, N.J.), as described previously³³. Surface plasmon resonance was measured using Biacore 3000. I domains were injected over the chip in 20 mM Tris HCl, pH 8.0, 150 mM NaCl, 10 mM MgCl₂, at a flow rate of 10 μl/min at room temperature.
Several of the most activating mutants were expressed in Escherichia coli and refolded in order to measure the kinetics of binding to ICAM-1 by surface plasmon resonance (FIG. 2). Data are shown in Table 2, and for comparison are shown kinetics measured for the wild-type and disulfide-bonded IA and HA mutants in a previous study⁶, and for the same disulfide-bonded HA mutant in the current study.
(§2) The values shown in the table are mean ± SD from three independent measurements. The parameters of kₒₙ, koff, and Kd were calculated by fitting the 1:1 Langmuir binding model to the Biacore sensogram. The values were from the previous studies ⁶.

T1 sequence (P05362 28-480 limits assumed, form in doubt): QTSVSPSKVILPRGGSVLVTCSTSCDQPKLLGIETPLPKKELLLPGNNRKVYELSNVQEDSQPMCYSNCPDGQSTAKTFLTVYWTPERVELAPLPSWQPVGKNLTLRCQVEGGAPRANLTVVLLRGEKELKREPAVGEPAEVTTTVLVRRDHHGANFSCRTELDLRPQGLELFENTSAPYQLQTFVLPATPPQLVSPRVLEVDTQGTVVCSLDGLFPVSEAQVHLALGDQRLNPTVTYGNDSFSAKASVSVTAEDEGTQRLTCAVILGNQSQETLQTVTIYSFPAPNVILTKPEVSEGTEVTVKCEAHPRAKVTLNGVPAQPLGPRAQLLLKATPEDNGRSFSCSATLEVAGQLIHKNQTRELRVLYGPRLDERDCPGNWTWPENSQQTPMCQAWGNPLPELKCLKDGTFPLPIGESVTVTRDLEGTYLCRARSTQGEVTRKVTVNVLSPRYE

| Binder | Kd [nM] | koff [s⁻¹] | kon [M⁻¹ s⁻¹] |
| --- | --- | --- | --- |
| B1 | 119 | 0.0019 | 16000 |
| B2 | 145 | 0.0017 | 11800 |
| B3 | 20000 | 0.19 | 9500 |

molecular target: T1, ICAM-1-Fcγ (ICAM-1 residues of 1-480 …); experiment: SPR (Biacore); wild-type value from a previous study

| Binder | fold decrease in dissociation-rate (against wild type) [fold] | fold increase in affinity (against wild type) [fold] |
| --- | --- | --- |
| B1 | 1000 | 10000 |
| B2 | 1000 | 10000 |
| B3 | – | 75 |

molecular target: T1, ICAM-1-Fcγ (ICAM-1 residues of 1-480 …); experiment: flow cytometry on yeast-displayed I domain, ICAM-1-Fcγ 10 µg/ml
Method: Cells that were cultured only in SD-CAA or further induced in SG-CAA were harvested, washed with 100 μl of labeling buffer (PBS, 0.5% BSA, 10 mM MgCl₂), and then incubated with ligands at 10 μg/ml in 50 μl of the labeling buffer for 20 min with shaking at 30° C. in a 96-well V-bottom plate. Ligands used in this study were anti-c-myc antibody 9E10 (Santa Cruz Biotechnology, CA) and anti-hemagglutinin antibody 12CA5 (Roche Applied Science), αL I domain-specific antibodies TS1/22 and MEM83³², and ICAM-1-Fcγ (ICAM-1 residues of 1-480 fused to the Fc of human IgG, R&D Systems). After incubation with the primary ligands, cells were washed once in 100 μl of the labeling buffer and incubated with the fluorescence-conjugated secondary antibodies at 5 μg/ml in 50 μl of the labeling buffer for 20 min at 4° C. Finally, cells were washed once in 100 μl and suspended in 100 μl of the labeling buffer for flow cytometry (FACScan, BD Biosciences).
A total of twenty-five yeast colonies were picked from SD-CAA plates from the libraries selected with ICAM-1-Fcγ. These clones were tested for binding of ICAM-1-Fcγ, and sequenced (Table 1). Of these, 15 had unique sequences and were designated as m1 to m15, and all bound ICAM-1 better than wild-type (Table 1). Five clones contained single mutations, and the remainder contained 2-5 mutations each (Table 1). From the clones containing multiple mutations, one to three residues were selected and independently tested as a single substitution (designated with a, b, or c suffix) or independently isolated from the ratchet residue library (see below).

| Binder | ICAM-1 (% ASFI of HA) |
| --- | --- |
| B4 | 47 % ASFI of HA |
| B5 | 31 % ASFI of HA |
| B6 | 24 % ASFI of HA |
| B7 | 81 % ASFI of HA |
| B8 | 91 % ASFI of HA |
| B9 | 10 % ASFI of HA |
| B10 | 25 % ASFI of HA |
| B11 | 91 % ASFI of HA |
| B12 | 123 % ASFI of HA |
| B13 | 74 % ASFI of HA |
| B14 | 30 % ASFI of HA |
| B15 | 14 % ASFI of HA |
| B16 | 5 % ASFI of HA |
| B17 | 27 % ASFI of HA |
| B18 | 33 % ASFI of HA |
| B19 | 54 % ASFI of HA |
| B20 | 28 % ASFI of HA |
| B21 | 29 % ASFI of HA |
| B22 | 4 % ASFI of HA |
| B23 | 5 % ASFI of HA |
| B24 | 4 % ASFI of HA |
| B25 | 17 % ASFI of HA |
| B26 | 16 % ASFI of HA |
| B27 | 51 % ASFI of HA |
| B28 | 110 % ASFI of HA |
| B29 | 51 % ASFI of HA |
| B30 | 107 % ASFI of HA |
| B31 | 10 % ASFI of HA |

molecular target: ICAM-1-Fcγ (ICAM-1 residues of 1-480 fused to the Fc of human IgG, R&D Systems) (human) (UniProt P05362); experiment: as above
Sequence (P05362 28-480 limits assumed): as the sequence (P05362 28-480 limits assumed, form in doubt) above

| Binder | ICAM-1 (% ASFI of HA) |
| --- | --- |
| B32 | 4 % ASFI of HA |

molecular target: T1, ICAM-1-Fcγ (ICAM-1 residues of 1-480 …); experiment: SPR (Biacore)
Method: Sensograms show the binding of the I domain mutants (F292A, F265S, F292G, and F265S/F292G) to ICAM-1-Fcγ-coated sensor chip. In all sensograms, the signals from the control surface, as described in Materials and Methods, were subtracted. I domain mutants were injected in a series of concentrations starting from 100 μM for F292A and 1 μM for F292G, F265S, and F265S/F292G, and the subsequent concentrations were by two-fold serial dilutions.
as §1, §2

| Binder | fold higher affinity compared to the F292A mutant [fold] | fold slower dissociation rate than the F292A mutant [fold] |
| --- | --- | --- |
| B1 | 170 | 100 |
| B2 | – | 100 |
